Data: patent publication US20230060095A1 (Regeneron, published 2023)

T1: PRAME peptide on HLA-A*02:01 (human)
T1 peptide: RLDQLLRHV

B1: PN46777 (TCR, V domains shown)
V domain 1: AQTVTQSQPEMSVQEAETVTLSCTYDTSENNYYLFWYKQPPSRQMILVIRQEAYKQQNATENRFSVNFQKAAKSFSLKISDSQLGDTAMYFCALMEYGNKLVFGAGTILRVKS
V domain 2: DAGITQSPRYKITETGRQVTLMCHQTWSHSYMFWYRQDLGHGLRLIYYSAAADITDKGEVPDGYVVSRSKTENFPLTLESATRSQTSVYFCASSDGTGYYGYTFGSGTRLTVV
notes: stained with anti-mouse TCR constant region antibody H57-597) and full-length chains were expressed on CHO cells
B2: PN46738 (TCR, V domains shown)
V domain 1: AQTVTQSQPEMSVQEAETVTLSCTYDTSENNYYLFWYKQPPSRQMILVIRQEAYKQQNATENRFSVNFQKAAKSFSLKISDSQLGDTAMYFCAFGMYSGGGADGLTFGKGTHLIIQP
V domain 2: DAGITQSPRYKITETGRQVTLMCHQTWSHSYMFWYRQDLGHGLRLIYYSAAADITDKGEVPDGYVVSRSKTENFPLTLESATRSQTSVYFCASSDGTGYYGYTFGSGTRLTVV
notes: as for B1
B3: PN46797 (TCR, V domains shown)
V domain 1: AQTVTQSQPEMSVQEAETVTLSCTYDTSENNYYLFWYKQPPSRQMILVIRQEAYKQQNATENRFSVNFQKAAKSFSLKISDSQLGDTAMYFCALMEYENKLVFGAGTILRVKS
V domain 2: DAGITQSPRYKITETGRQVTLMCHQTWSHSYMFWYRQDLGHGLRLIYYSAAADITDKGEVPDGYVVSRSKTENFPLTLESATRSQTSVYFCASSDGTGYYGYTFGSGTRLTVV
notes: as for B1
B4: PN46889 (TCR, V domains shown)
V domain 1: QKEVEQNSGPLSVPEGAIASLNCTYSDRGSQSFFWYRQYSGKSPELIMSIYSNGDKEDGRFTAQLNKASQYVSLLIRDSQPSDSATYLCAVNIPNSGYSTLTFGKGTMLLVSP
V domain 2: NAGVTQTPKFRVLKTGQSMTLLCAQDMNHEYMYWYRQDPGMGLRLIHYSVGEGTTAKGEVPDGYNVSRLKKQNFLLGLESAAPSQTSVYFCASSYWEGTEAFFGQGTRLTVV
notes: as for B1
B5: PN46914 (TCR, V domains shown)
V domain 1: AQKVTQAQPEISVVEKEDVTLDCVYETRDTTYYLFWYKQPPSGELVFLIRRNSFDEQNEISGRYSWNFQKSTSSFNFTITASQVVDSAVYFCALSEGYNQGGKLIFGQGTELSVKP
V domain 2: DVKVTQSSRYLVKRTGEKVFLECVQDMDHENMFWYRQDPGLGLRLIYFSYDVKMKEKGDIPEGYSVSREKKERFSLILESASTNQTSMYLCASGADSNQPQHFGDGTRLSIL
notes: as for B1
B6: PN46735 (TCR, V domains shown)
V domain 1: DAKTTQPNSMESNEEEPVHLPCNHSTISGTDYIHWYRQLPSQGPEYVIHGLTSNVNNRMASLAIAEDRKSSTLILHRATLRDAAVYYCILREYMYSGGGADGLTFGKGTHLIIQP
V domain 2: DAGVTQSPTHLIKTRGQQVTLRCSPISGHKSVSWYQQVLGQGPQFIFQYYEKEERGRGNFPDRFSARQFPNYSSELNVNALLLGDSALYLCASSFQAGVNYGYTFGSGTRLTVV
notes: as for B1
B7: PN46733 (TCR, V domains shown)
V domain 1: GESVGLHLPTLSVQEGDNSIINCAYSNSASDYFIWYKQESGKGPQFIIDIRSNMDKRQGQRVTVLLNKTVKHLSLQIAATQPGDSAVYFCAENNYGQNFVFGPGTRLSVLP
V domain 2: NAGVTQTPKFQVLKTGQSMTLQCAQDMNHNSMYWYRQDPGMGLRLIYYSASEGTTDKGEVPNGYNVSRLNKREFSLRLESAAPSQTSVYFCASSDWGQGVEAFFGQGTRLTVV
notes: as for B1
B8: PN46723 (TCR, V domains shown)
V domain 1: EDQVTQSPEALRLQEGESSSLNCSYTVSGLRGLFWYRQDPGKGPEFLFTLYSAGEEKEKERLKATLTKKESFLHITAPKPEDSATYLCAVQEDGGSQGNLIFGKGTKLSVKP
V domain 2: DAGVTQSPTHLIKTRGQQVTLRCSPISGHKSVSWYQQVLGQGPQFIFQYYEKEERGRGNFPDRFSARQFPNYSSELNVNALLLGDSALYLCASSRDINEKLFFGSGTQLSVL
notes: as for B1
B9: PN46678 (TCR, V domains shown)
V domain 1: AQKVTQAQPEISVVEKEDVTLDCVYETRDTTYYLFWYKQPPSGELVFLIRRNSFDEQNEISGRYSWNFQKSTSSFNFTITASQVVDSAVYFCALSEFDRGSTLGRLYFGRGTQLTVWP
V domain 2: DAGVTQSPTHLIKTRGQQVTLRCSPISGHKSVSWYQQVLGQGPQFIFQYYEKEERGRGNFPDRFSARQFPNYSSELNVNALLLGDSALYLCASSRDINEKLFFGSGTQLSVL
notes: as for B1
B10: PN46714 (TCR, V domains shown)
V domain 1: EDQVTQSPEALRLQEGESSSLNCSYTVSGLRGLFWYRQDPGKGPEFLFTLYSAGEEKEKERLKATLTKKESFLHITAPKPEDSATYLCAVQADGGSQGNLIFGKGTKLSVKP
V domain 2: DAGVTQSPTHLIKTRGQQVTLRCSPISGHKSVSWYQQVLGQGPQFIFQYYEKEERGRGNFPDRFSARQFPNYSSELNVNALLLGDSALYLCASSLDINSPLHFGNGTRLTVT
notes: as for B1

How the values were obtained:
[1] = target: T1, PRAME peptide on HLA-A*02:01; assay: multimer staining
[2] = target: T2, soluble HLA-A2:PRAME (312-320) tetramer (human); assay: flow cytometry, soluble pMHC tetramer on CHO cells expressing the TCR
T2 construct: Commercial tetramer (MBL International); construct limits, biotin tag and streptavidin/fluorophore not described; also called PRAME/HLA tetramer reagent

| Binder | binding result [1] | Cell Frequency ≥1000 MFI, ≥1% (% tetramer positive cells in the Ag+ gate) [2] |
| --- | --- | --- |
| B1 | recognises | 98.9% |
| B2 | recognises | 23% |
| B3 | recognises | 57.3% |
| B4 | recognises | 92.5% |
| B5 | recognises | 11.5% |
| B6 | recognises | 17.9% |
| B7 | recognises | 87.9% |
| B8 | recognises | 72.5% |
| B9 | recognises | 11% |
| B10 | recognises | 62.1% |
